The Immune Epitope Database (IEDB)

Experiments:
[1] = target: HLA-B*08:02; test: IEDB peptide-MHC binding, purified MHC/direct/fluorescence; filed as Kd, often an IC50 or EC50 that approximates it; ≥ and ≤ were set here for values at or beyond the usual limits of such assays
[2] = target: HLA-B*07:02; test: as above
[3] = target: HLA-A*02:16; test: IEDB peptide-MHC binding, purified MHC/competitive/fluorescence; filed as Kd, often an IC50 or EC50 that approximates it; ≥ and ≤ were set here for values at or beyond the usual limits of such assays
[4] = target: HLA-B*08:01; test: IEDB peptide-MHC binding, purified MHC/direct/fluorescence; filed as Kd, often an IC50 or EC50 that approximates it; ≥ and ≤ were set here for values at or beyond the usual limits of such assays; details: source organism: Giardia lamblia ATCC 50803
[5] = target: HLA-C*03:03; test: as above; details: source organism: Yersinia frederiksenii ATCC 33641
[6] = target: HLA-C*12:03; test: as above
[7] = target: HLA-C*15:02; test: as above
[8] = target: HLA-A*02:01; test: IEDB peptide-MHC binding, purified MHC/competitive/fluorescence; filed as Kd, often an IC50 or EC50 that approximates it; ≥ and ≤ were set here for values at or beyond the usual limits of such assays
[9] = target: HLA-A*02:03; test: as above
[10] = target: HLA-A*02:11; test: as above
[11] = target: HLA-A*02:12; test: as above
[12] = target: HLA-A*02:19; test: as above
[13] = target: HLA-A*03:01; test: as above; details: source organism: Brucella abortus S19
[14] = target: HLA-A*24:03; test: as above
[15] = target: HLA-A*26:01; test: as above
[16] = target: HLA-A*29:02; test: as above; details: source organism: Brucella abortus S19
[17] = target: HLA-A*68:02; test: as above
[18] = target: HLA-A*69:01; test: as above
[19] = target: HLA-B*15:01; test: as above
[20] = target: HLA-B*15:17; test: as above
[21] = target: HLA-B*18:01; test: as above
[22] = target: HLA-B*27:03; test: as above
[23] = target: HLA-B*39:01; test: as above
[24] = target: HLA-B*46:01; test: as above
[25] = target: HLA-B*51:01; test: as above
[26] = target: HLA-B*57:01; test: as above
[27] = target: HLA-A*24:02; test: as above
[28] = target: HLA-A*01:01; test: IEDB peptide-MHC binding, purified MHC/direct/fluorescence; filed as Kd, often an IC50 or EC50 that approximates it; ≥ and ≤ were set here for values at or beyond the usual limits of such assays; details: source organism: Camelpox virus M-96
[29] = target: HLA-A*31:01; test: as above; details: source organism: Camelpox virus M-96
[30] = target: HLA-B*15:01; test: as above; details: source organism: Camelpox virus M-96
[31] = target: HLA-B*27:05; test: as above; details: source organism: Camelpox virus M-96
[32] = target: HLA-B*46:01; test: as above; details: source organism: Camelpox virus M-96
[33] = target: HLA-B*48:01; test: as above; details: source organism: Camelpox virus M-96
[34] = target: HLA-B*57:01; test: as above; details: source organism: Camelpox virus M-96
[35] = target: HLA-B*58:01; test: as above; details: source organism: Camelpox virus M-96
[36] = target: HLA-A*11:01; test: IEDB peptide-MHC binding, purified MHC/competitive/fluorescence; filed as Kd, often an IC50 or EC50 that approximates it; ≥ and ≤ were set here for values at or beyond the usual limits of such assays; details: source organism: Vaccinia virus WR
[37] = target: HLA-A*26:02; test: as above; details: source organism: Vaccinia virus WR
[38] = target: HLA-A*30:01; test: as above; details: source organism: Vaccinia virus WR
[39] = target: HLA-B*35:01; test: as above; details: source organism: Vaccinia virus WR
[40] = target: HLA-A*31:01; test: as above
[41] = target: HLA-B*27:05; test: as above
[42] = target: HLA-C*14:02; test: IEDB peptide-MHC binding, purified MHC/direct/fluorescence; filed as Kd, often an IC50 or EC50 that approximates it; ≥ and ≤ were set here for values at or beyond the usual limits of such assays; details: source organism: Entamoeba histolytica HM-1:IMSS
[43] = source organism: Yersinia frederiksenii ATCC 33641
[44] = source organism: Brucella abortus S19
[45] = source organism: Vaccinia virus WR
[46] = source organism: Influenza A virus (A/Gf/HK/SSP607/2003(H9N2))
[47] = source organism: Vibrio parahaemolyticus AQ3810
[48] = source organism: Entamoeba histolytica HM-1:IMSS

How did the Kd ([1]; source organism: Dengue virus 2 Thailand/16681/84) turn out when KCRLRMDKL was run?
Its Kd is ≥ 20 µM.

With RLTGREGAV as the sequence, how does the Kd ([2]; source organism: Pseudomonas aeruginosa) read?
The Kd was 7.02 µM.

And the Kd ([3]; source organism: Pseudomonas aeruginosa PACS2)?
The Kd was 0.345 µM.

Which Kd [4] does the source give for YSKIRGAAL here?
Its Kd is 0.027 µM.

And the Kd ([1]; source organism: Giardia lamblia ATCC 50803)?
The Kd was 0.445 µM.

LAIEATLAF was tested. Which Kd [5] did it give?
Its Kd is ≥ 20 µM.

And the Kd [6, 43]?
The Kd was 1.04 µM.

What about the Kd [7, 43] of the same sequence?
The Kd was ≥ 20 µM.

Which Kd [8, 44] does the source give for KQWIVAGAI here?
Its Kd is 0.0017 µM.

What about the Kd [9, 44] of the same sequence?
Its Kd is ≥ 20 µM.

And the Kd [10, 44]?
The Kd was ≤ 0.0001 µM.

And the Kd [11, 44]?
Its Kd is ≥ 20 µM.

And the Kd [12, 44]?
The Kd was ≥ 20 µM.

What about the Kd [13] of the same sequence?
The Kd was ≥ 20 µM.

What about the Kd [14, 44] of the same sequence?
The Kd was ≥ 20 µM.

And the Kd [15, 44]?
Its Kd is ≥ 20 µM.

And the Kd [16]?
The Kd was ≥ 20 µM.

What about the Kd [17, 44] of the same sequence?
Its Kd is ≥ 20 µM.

What about the Kd [18, 44] of the same sequence?
The Kd was ≥ 20 µM.

And the Kd [19, 44]?
Its Kd is ≥ 20 µM.

What about the Kd [20, 44] of the same sequence?
The Kd was ≥ 20 µM.

And the Kd [21, 44]?
Its Kd is ≥ 20 µM.

And the Kd [22, 44]?
The Kd was ≥ 20 µM.

And the Kd [23, 44]?
Its Kd is ≥ 20 µM.

And the Kd [24, 44]?
The Kd was ≥ 20 µM.

And the Kd [25, 44]?
The Kd was ≥ 20 µM.

And the Kd [26, 44]?
Its Kd is ≥ 20 µM.

RYSGFVRTLF was tested. Which Kd ([27]; source organism: Influenza A virus (A/turkey/Ohio/313053/2004(H3N2))) did it give?
Its Kd is ≤ 0.0001 µM.

PYMSALFWI was tested. Which Kd ([27]; source organism: Cryptosporidium parvum Iowa II) did it give?
The Kd was 0.0008 µM.

For FVFEATKLY, which Kd [28] is on record?
The Kd was ≥ 20 µM.

And the Kd [29]?
The Kd was ≥ 20 µM.

And the Kd ([2]; source organism: Camelpox virus M-96)?
Its Kd is ≥ 20 µM.

What about the Kd [30] of the same sequence?
The Kd was 0.0177 µM.

And the Kd [31]?
The Kd was ≥ 20 µM.

What about the Kd [32] of the same sequence?
The Kd was ≥ 20 µM.

What about the Kd [33] of the same sequence?
Its Kd is ≥ 20 µM.

What about the Kd [34] of the same sequence?
The Kd was ≥ 20 µM.

What about the Kd [35] of the same sequence?
The Kd was ≥ 20 µM.

What about the Kd [6, 45] of the same sequence?
The Kd was ≤ 0.001 µM.

And the Kd [8, 45]?
Its Kd is ≥ 20 µM.

What about the Kd [36] of the same sequence?
Its Kd is 2.08 µM.

And the Kd [15, 45]?
Its Kd is 0.0167 µM.

What about the Kd [37] of the same sequence?
The Kd was 0.0668 µM.

And the Kd [38]?
The Kd was ≥ 20 µM.

What about the Kd [17, 45] of the same sequence?
The Kd was 0.0496 µM.

What about the Kd [20, 45] of the same sequence?
Its Kd is 0.12 µM.

What about the Kd [39] of the same sequence?
The Kd was 0.0057 µM.

What does the source list for AMITYITRK?
Kd [8, 46]: ≥ 20 µM; Kd [9, 46]: ≥ 20 µM; Kd [11, 46]: ≥ 20 µM; Kd [3, 46]: ≥ 20 µM; Kd [12, 46]: ≥ 20 µM; Kd [14, 46]: ≥ 20 µM; Kd [15, 46]: ≥ 20 µM; Kd [40, 46]: 0.158 µM; Kd [17, 46]: ≥ 20 µM; Kd [18, 46]: ≥ 20 µM; Kd [19, 46]: ≥ 20 µM; Kd [20, 46]: ≥ 20 µM; Kd [21, 46]: ≥ 20 µM; Kd [22, 46]: ≥ 20 µM; Kd [23, 46]: ≥ 20 µM; Kd [24, 46]: ≥ 20 µM; Kd [25, 46]: ≥ 20 µM; Kd [26, 46]: ≥ 20 µM

How did the Kd ([27]; source organism: Influenza A virus (A/goose/Guangdong/1/1996(H5N1))) turn out when KYNGIITDTI was run?
The Kd was 0.0002 µM.

With GKLNRLIGK as the sequence, how does the Kd ([41]; source organism: Influenza A virus (A/Hong Kong/CUHK13527/2003(H3N2))) read?
Its Kd is 1.84 µM.

With HFIYHKREK as the sequence, how does the Kd [8, 47] read?
Its Kd is ≥ 20 µM.

And the Kd [9, 47]?
The Kd was ≥ 20 µM.

What about the Kd [10, 47] of the same sequence?
The Kd was ≥ 20 µM.

And the Kd [11, 47]?
The Kd was ≥ 20 µM.

And the Kd [3, 47]?
The Kd was ≥ 20 µM.

And the Kd [12, 47]?
Its Kd is ≥ 20 µM.

And the Kd [14, 47]?
The Kd was ≥ 20 µM.

And the Kd [15, 47]?
The Kd was ≥ 20 µM.

What about the Kd [40, 47] of the same sequence?
Its Kd is 0.0188 µM.

What about the Kd [17, 47] of the same sequence?
The Kd was ≥ 20 µM.

And the Kd [18, 47]?
The Kd was ≥ 20 µM.

And the Kd [19, 47]?
Its Kd is ≥ 20 µM.

What about the Kd [20, 47] of the same sequence?
The Kd was ≥ 20 µM.

And the Kd [21, 47]?
The Kd was ≥ 20 µM.

And the Kd [22, 47]?
Its Kd is ≥ 20 µM.

What about the Kd [23, 47] of the same sequence?
The Kd was ≥ 20 µM.

And the Kd [24, 47]?
The Kd was ≥ 20 µM.

And the Kd [25, 47]?
The Kd was ≥ 20 µM.

What about the Kd [26, 47] of the same sequence?
Its Kd is ≥ 20 µM.

For KQWRGDKML, which Kd ([41]; source organism: Bacillus thuringiensis str. Al Hakam) is on record?
The Kd was 0.0852 µM.

With SWLYNYFVF as the sequence, how does the Kd [42] read?
The Kd was 0.438 µM.

What about the Kd [7, 48] of the same sequence?
Its Kd is ≥ 20 µM.

And the Kd [27, 48]?
Its Kd is 0.0003 µM.
